PMC9352680, “A comprehensive thermodynamic model for RNA binding by the Saccharomyces cerevisiae Pumilio protein PUF4”

T1: PUF4 RNA-binding domain (Saccharomyces cerevisiae, UniProt P25339 537-888)
T1 sequence: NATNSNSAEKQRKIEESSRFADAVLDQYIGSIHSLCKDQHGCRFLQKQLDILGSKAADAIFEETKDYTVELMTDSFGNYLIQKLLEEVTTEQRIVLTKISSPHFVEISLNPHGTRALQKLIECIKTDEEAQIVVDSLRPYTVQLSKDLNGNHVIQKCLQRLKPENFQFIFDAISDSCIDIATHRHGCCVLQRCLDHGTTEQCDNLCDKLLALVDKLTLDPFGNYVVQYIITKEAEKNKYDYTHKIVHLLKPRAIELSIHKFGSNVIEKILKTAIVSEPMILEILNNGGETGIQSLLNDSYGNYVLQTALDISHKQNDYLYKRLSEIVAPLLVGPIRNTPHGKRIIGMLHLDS


Target: T1, PUF4 RNA-binding domain
Assay: Mg; RNA-MaP; 20 mM Na-HEPES pH 7.4, 30 mM KOAc, 0.75 mM MgCl2, 0.1% Tween-20, 5% glycerol, 0.1 mg/mL BSA, 2 mM DTT; 25 C; 0.0125-409.6 nM protein
Settings: tags: N-His6-TEV cleaved; C-SNAP kept, Cy3B-labelled; label: tethered on chip by stalled RNA polymerase

| Binder | Kd [nM] |
| --- | --- |
| Ib_S2_P4E.1_K4.1_C4.1_H4.1_[A4T]_A4.1_[A6C]_F4.1_T4.1 (ssRNA) RNA: UUUGAUUAAUAUGAUAUCGUUCUUUCUUGUUUCUUAUUCUUUCUCGAUAUCAUAUUAAUCUUU | 23.1 |
| Ib_S2_P4E.1_K4.1_C4.1_H4.1_[A4G]_A4.1_[T7G]_F4.1_T4.1 (ssRNA) RNA: UUUGAUUAAUAUGAUAUCGUUCUUUCUUGUGUAGUAUUCUUUCUCGAUAUCAUAUUAAUCUUU | 5.12 |
| Ib_S2_P4E.1_K4.1_C4.1_H4.1_A4.1_[T5A]_[T7C]_F4.1_T4.1 (ssRNA) RNA: UUUGAUUAAUAUGAUAUCGUUCUUUCUUGUAAACUAUUCUUUCUCGAUAUCAUAUUAAUCUUU | 1.21 |
| Ib_S2_P4E.1_K4.1_C4.1_H4.1_[A4C]_A4.1_[T7G]_F4.1_T4.1 (ssRNA) RNA: UUUGAUUAAUAUGAUAUCGUUCUUUCUUGUCUAGUAUUCUUUCUCGAUAUCAUAUUAAUCUUU | 50.2 |
| Ic_S2_P4E.1_K4.1_C4.1_H4.1_A4.1_[A6G]_[T7C]_F4.1_T4.1 (ssRNA) RNA: UUUGAUUAAUAUGAUAUCGUUCUUUCUUGUAUGCUAUUCUUUCUCGAUAUCAUAUUAAUCUUU | 2.71 |
| Ib_S2_P4E.1_K4.1_C4.1_H4.1_A4.1_[T5C]_[T7C]_F4.1_T4.1 (ssRNA) RNA: UUUGAUUAAUAUGAUAUCGUUCUUUCUUGUACACUAUUCUUUCUCGAUAUCAUAUUAAUCUUU | 0.279 |
| Ib_S2_P4E.1_K4.1_C4.1_H4.1_A4.1_[T5A]_[A6C]_F4.1_T4.1 (ssRNA) RNA: UUUGAUUAAUAUGAUAUCGUUCUUUCUUGUAACUUAUUCUUUCUCGAUAUCAUAUUAAUCUUU | 2.62 |
| Ic_S2_P4E.1_K4.1_C4.1_H4.1_A4.1_[T5A]_F4.1_T4.1 (ssRNA) RNA: UUUGAUUAAUAUGAUAUCGUUCUUUCUUGUAAAUUAUUCUUUCUCGAUAUCAUAUUAAUCUUU | 0.874 |
| Ic_S2_P4E.1_K4.1_C4.1_H4.1_A4.1_[A6T]_[T7A]_F4.1_T4.1 (ssRNA) RNA: UUUGAUUAAUAUGAUAUCGUUCUUUCUUGUAUUAUAUUCUUUCUCGAUAUCAUAUUAAUCUUU | 0.912 |
| Ib_S2_P4E.1_K4.1_C4.1_H4.1_[A4T]_A4.1_[T7C]_F4.1_T4.1 (ssRNA) RNA: UUUGAUUAAUAUGAUAUCGUUCUUUCUUGUUUACUAUUCUUUCUCGAUAUCAUAUUAAUCUUU | 6.89 |
| Ia_S2_P4E.1_K4.1_C4.1_H4.1_A4.1_[A6C]_F4.1_T4.1 (ssRNA) RNA: UUUGAUUAAUAUGAUAUCGUUCUUUCUUGUAUCUUAUUCUUUCUCGAUAUCAUAUUAAUCUUU | 1.21 |
| Ib_S2_P4E.1_K4.1_C4.1_H4.1_[A4G]_A4.1_[T7C]_F4.1_T4.1 (ssRNA) RNA: UUUGAUUAAUAUGAUAUCGUUCUUUCUUGUGUACUAUUCUUUCUCGAUAUCAUAUUAAUCUUU | 1.04 |
| Ib_S2_P4E.1_K4.1_C4.1_H4.1_A4.1_[T5A]_[T7A]_F4.1_T4.1 (ssRNA) RNA: UUUGAUUAAUAUGAUAUCGUUCUUUCUUGUAAAAUAUUCUUUCUCGAUAUCAUAUUAAUCUUU | 1.83 |
| Ic_S2_P4E.1_K4.1_C4.1_H4.1_A4.1_[A6T]_[T7C]_F4.1_T4.1 (ssRNA) RNA: UUUGAUUAAUAUGAUAUCGUUCUUUCUUGUAUUCUAUUCUUUCUCGAUAUCAUAUUAAUCUUU | 1 |
| Ib_S2_P4E.1_K4.1_C4.1_H4.1_[A4G]_A4.1_[T7A]_F4.1_T4.1 (ssRNA) RNA: UUUGAUUAAUAUGAUAUCGUUCUUUCUUGUGUAAUAUUCUUUCUCGAUAUCAUAUUAAUCUUU | 5.79 |
| Ib_S2_P4E.1_K4.1_C4.1_H4.1_A4.1_[T5C]_[A6C]_F4.1_T4.1 (ssRNA) RNA: UUUGAUUAAUAUGAUAUCGUUCUUUCUUGUACCUUAUUCUUUCUCGAUAUCAUAUUAAUCUUU | 0.902 |
| Ic_S2_P4E.1_K4.1_C4.1_H4.1_A4.1_[A6C]_[T7C]_F4.1_T4.1 (ssRNA) RNA: UUUGAUUAAUAUGAUAUCGUUCUUUCUUGUAUCCUAUUCUUUCUCGAUAUCAUAUUAAUCUUU | 1.76 |
| Ia_S2_P4E.1_K4.1_C4.1_H4.1_A4.1_[T7G]_F4.1_T4.1 (ssRNA) RNA: UUUGAUUAAUAUGAUAUCGUUCUUUCUUGUAUAGUAUUCUUUCUCGAUAUCAUAUUAAUCUUU | 1.05 |
| Ib_S2_P4E.1_K4.1_C4.1_H4.1_[A4C]_A4.1_[T7C]_F4.1_T4.1 (ssRNA) RNA: UUUGAUUAAUAUGAUAUCGUUCUUUCUUGUCUACUAUUCUUUCUCGAUAUCAUAUUAAUCUUU | 6.04 |
| Ib_S2_P4E.1_K4.1_C4.1_H4.1_A4.1_[T5C]_[T7G]_F4.1_T4.1 (ssRNA) RNA: UUUGAUUAAUAUGAUAUCGUUCUUUCUUGUACAGUAUUCUUUCUCGAUAUCAUAUUAAUCUUU | 0.884 |
| Ib_S2_P4E.1_K4.1_C4.1_H4.1_[A4C]_A4.1_[T7A]_F4.1_T4.1 (ssRNA) RNA: UUUGAUUAAUAUGAUAUCGUUCUUUCUUGUCUAAUAUUCUUUCUCGAUAUCAUAUUAAUCUUU | 16 |

| Binder | Kd [nM] |
| --- | --- |
| Ic_S2_P4E.1_K4.1_C4.1_H4.1_A4.1_[A6T]_[T7G]_F4.1_T4.1 (ssRNA) RNA: UUUGAUUAAUAUGAUAUCGUUCUUUCUUGUAUUGUAUUCUUUCUCGAUAUCAUAUUAAUCUUU | 4.85 |
| Ib_S2_P4E.1_K4.1_C4.1_H4.1_[A4T]_A4.1_[T7G]_F4.1_T4.1 (ssRNA) RNA: UUUGAUUAAUAUGAUAUCGUUCUUUCUUGUUUAGUAUUCUUUCUCGAUAUCAUAUUAAUCUUU | 30.8 |
| Ib_S2_P4E.1_K4.1_C4.1_H4.1_A4.1_[T5G]_[A6T]_F4.1_T4.1 (ssRNA) RNA: UUUGAUUAAUAUGAUAUCGUUCUUUCUUGUAGUUUAUUCUUUCUCGAUAUCAUAUUAAUCUUU | 2.75 |
| Ia_S2_P4E.1_K4.1_C4.1_H4.1_A4.1_[A6G]_F4.1_T4.1 (ssRNA) RNA: UUUGAUUAAUAUGAUAUCGUUCUUUCUUGUAUGUUAUUCUUUCUCGAUAUCAUAUUAAUCUUU | 2.55 |
| Ic_S2_P4E.1_K4.1_C4.1_H4.1_A4.1_[A6C]_[T7A]_F4.1_T4.1 (ssRNA) RNA: UUUGAUUAAUAUGAUAUCGUUCUUUCUUGUAUCAUAUUCUUUCUCGAUAUCAUAUUAAUCUUU | 0.595 |
| Ib_S2_P4E.1_K4.1_C4.1_H4.1_A4.1_[T5C]_[A6T]_F4.1_T4.1 (ssRNA) RNA: UUUGAUUAAUAUGAUAUCGUUCUUUCUUGUACUUUAUUCUUUCUCGAUAUCAUAUUAAUCUUU | 0.795 |
| Ib_S2_P4E.1_K4.1_C4.1_H4.1_A4.1_[A6C]_[T7G]_F4.1_T4.1 (ssRNA) RNA: UUUGAUUAAUAUGAUAUCGUUCUUUCUUGUAUCGUAUUCUUUCUCGAUAUCAUAUUAAUCUUU | 8.48 |
| Ic_S2_P4E.1_K4.1_C4.1_H4.1_A4.1_[T5A]_[A6T]_F4.1_T4.1 (ssRNA) RNA: UUUGAUUAAUAUGAUAUCGUUCUUUCUUGUAAUUUAUUCUUUCUCGAUAUCAUAUUAAUCUUU | 2.07 |
| Ib_S2_P5E.1_K5.1_C5.1_H5.1_A5.1_F5.1_[T8C]_[T9C]_T5.1 (ssRNA) RNA: UUUGAUUAAUAUGAUAUCGUUCUUUCUUGUAUUACCAUUCUUUCUCGAUAUCAUAUUAAUCUUU | 321 |
| Ib_S2_P5E.1_K5.1_C5.1_H5.1_A5.1_F5.1_[T8C]_[A10T]_T5.1 (ssRNA) RNA: UUUGAUUAAUAUGAUAUCGUUCUUUCUUGUAUUACUUUUCUUUCUCGAUAUCAUAUUAAUCUUU | 64.6 |
| Ib_S2_P5E.1_K5.1_C5.1_H5.1_A5.1_F5.1_[T9A]_[A10G]_T5.1 (ssRNA) RNA: UUUGAUUAAUAUGAUAUCGUUCUUUCUUGUAUUAUAGUUCUUUCUCGAUAUCAUAUUAAUCUUU | 3.11 |
| Ib_S2_P5E.1_K5.1_C5.1_H5.1_A5.1_F5.1_[T9A]_[A10T]_T5.1 (ssRNA) RNA: UUUGAUUAAUAUGAUAUCGUUCUUUCUUGUAUUAUAUUUCUUUCUCGAUAUCAUAUUAAUCUUU | 0.947 |
| Ib_S2_P5E.1_K5.1_C5.1_H5.1_[T3C]_A5.1_F5.1_[T8C]_T5.1 (ssRNA) RNA: UUUGAUUAAUAUGAUAUCGUUCUUUCUUGCAUUACUAUUCUUUCUCGAUAUCAUAUUAAUCUUU | 562 |
| Ib_S2_P5E.1_K5.1_C5.1_H5.1_A5.1_F5.1_[T9A]_[A10C]_T5.1 (ssRNA) RNA: UUUGAUUAAUAUGAUAUCGUUCUUUCUUGUAUUAUACUUCUUUCUCGAUAUCAUAUUAAUCUUU | 7.25 |
| Ib_S2_P5E.1_K5.1_C5.1_H5.1_A5.1_F5.1_[T8C]_[A10G]_T5.1 (ssRNA) RNA: UUUGAUUAAUAUGAUAUCGUUCUUUCUUGUAUUACUGUUCUUUCUCGAUAUCAUAUUAAUCUUU | 64.4 |
| Ic_S2_P5E.1_K5.1_C5.1_H5.1_A5.1_F5.1_[T9C]_[A10T]_T5.1 (ssRNA) RNA: UUUGAUUAAUAUGAUAUCGUUCUUUCUUGUAUUAUCUUUCUUUCUCGAUAUCAUAUUAAUCUUU | 17.6 |
| Ib_S2_P5E.1_K5.1_C5.1_H5.1_A5.1_F5.1_[T9C]_[A10C]_T5.1 (ssRNA) RNA: UUUGAUUAAUAUGAUAUCGUUCUUUCUUGUAUUAUCCUUCUUUCUCGAUAUCAUAUUAAUCUUU | 19.4 |
| Ib_S2_P5E.1_K5.1_C5.1_H5.1_A5.1_F5.1_[T8A]_[A10C]_T5.1 (ssRNA) RNA: UUUGAUUAAUAUGAUAUCGUUCUUUCUUGUAUUAAUCUUCUUUCUCGAUAUCAUAUUAAUCUUU | 181 |
| Ib_S2_P5E.1_K5.1_C5.1_H5.1_[G2A]_A5.1_F5.1_[T8G]_T5.1 (ssRNA) RNA: UUUGAUUAAUAUGAUAUCGUUCUUUCUUAUAUUAGUAUUCUUUCUCGAUAUCAUAUUAAUCUUU | 695 |
| Ib_S2_P5E.1_K5.1_C5.1_H5.1_A5.1_F5.1_[T9G]_[A10T]_T5.1 (ssRNA) RNA: UUUGAUUAAUAUGAUAUCGUUCUUUCUUGUAUUAUGUUUCUUUCUCGAUAUCAUAUUAAUCUUU | 3.65 |
| Ib_S2_P5E.1_K5.1_C5.1_H5.1_[T3C]_A5.1_F5.1_[T8A]_T5.1 (ssRNA) RNA: UUUGAUUAAUAUGAUAUCGUUCUUUCUUGCAUUAAUAUUCUUUCUCGAUAUCAUAUUAAUCUUU | 1260 |
